Data from US20240270828A1 (UAB RESEARCH FOUNDATION, published 2024).

T1: Spike of MERS-CoV on infected Vero E6 cells and live virus (MERS-CoV, UniProt K9N5Q8 18-1353)
T1 sequence: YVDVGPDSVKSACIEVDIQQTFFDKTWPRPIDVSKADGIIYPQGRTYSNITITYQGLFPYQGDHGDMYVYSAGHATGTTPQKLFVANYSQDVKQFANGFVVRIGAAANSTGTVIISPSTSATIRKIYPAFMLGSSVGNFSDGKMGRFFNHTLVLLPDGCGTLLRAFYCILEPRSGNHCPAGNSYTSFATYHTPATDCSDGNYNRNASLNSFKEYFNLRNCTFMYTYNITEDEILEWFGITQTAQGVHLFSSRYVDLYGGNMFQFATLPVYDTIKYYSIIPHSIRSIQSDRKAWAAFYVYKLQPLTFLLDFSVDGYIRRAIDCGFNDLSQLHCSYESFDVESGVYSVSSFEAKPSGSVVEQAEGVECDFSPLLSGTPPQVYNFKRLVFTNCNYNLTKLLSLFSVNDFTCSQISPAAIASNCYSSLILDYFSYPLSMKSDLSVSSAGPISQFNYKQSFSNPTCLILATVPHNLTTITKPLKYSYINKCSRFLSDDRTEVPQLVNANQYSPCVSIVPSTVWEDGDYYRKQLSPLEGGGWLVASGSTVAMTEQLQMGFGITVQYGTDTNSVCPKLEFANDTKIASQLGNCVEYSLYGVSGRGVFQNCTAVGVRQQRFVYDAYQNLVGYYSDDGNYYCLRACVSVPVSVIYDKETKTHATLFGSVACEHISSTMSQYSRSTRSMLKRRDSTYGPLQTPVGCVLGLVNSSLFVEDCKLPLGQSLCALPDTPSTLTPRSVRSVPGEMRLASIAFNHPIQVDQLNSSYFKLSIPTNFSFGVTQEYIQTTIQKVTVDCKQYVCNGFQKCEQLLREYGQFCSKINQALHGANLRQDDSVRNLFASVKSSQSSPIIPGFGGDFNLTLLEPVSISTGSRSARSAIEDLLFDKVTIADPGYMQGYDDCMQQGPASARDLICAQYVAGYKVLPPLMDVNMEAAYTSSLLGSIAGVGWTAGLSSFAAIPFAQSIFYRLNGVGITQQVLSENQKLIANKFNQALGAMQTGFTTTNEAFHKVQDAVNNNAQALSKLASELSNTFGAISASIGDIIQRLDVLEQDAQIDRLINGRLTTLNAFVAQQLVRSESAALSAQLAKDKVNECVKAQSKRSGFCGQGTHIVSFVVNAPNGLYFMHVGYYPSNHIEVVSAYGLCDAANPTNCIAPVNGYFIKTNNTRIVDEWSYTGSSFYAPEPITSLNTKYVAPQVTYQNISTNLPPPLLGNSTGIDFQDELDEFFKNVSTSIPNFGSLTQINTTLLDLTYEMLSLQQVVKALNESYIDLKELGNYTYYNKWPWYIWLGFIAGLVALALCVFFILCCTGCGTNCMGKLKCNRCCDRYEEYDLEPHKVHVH


Experiments:
[1] = molecular target: Spike of live SARS-CoV-2 WT virus (SARS-CoV-2, UniProt P0DTC2 14-1273); assay: cell-based or functional assay
[2] = molecular target: Spike of live SARS-CoV-2 WT virus (SARS-CoV-2, UniProt P0DTC2 14-1273); assay: cell-based or functional assay; remark: listed apart in the source
[3] = molecular target: T2, SARS-CoV-2 S1+S2 (40589-V08B1, Sino Biological) (SARS-CoV-2, UniProt P0DTC2 16-1213); assay: ELISA, hmAb at 10 and 1 ug/ml in duplicate; AUC
[4] = molecular target: T3, SARS-CoV-2 S2 (40590-V08B, Sino Biological) (SARS-CoV-2, UniProt P0DTC2 686-1213); assay: ELISA, hmAb at 10 and 1 ug/ml in duplicate; AUC
T3 construct: domain: S2

[5] = molecular target: T4, SARS-CoV-2 S1 (40591-V08H3, Sino Biological) (SARS-CoV-2, UniProt P0DTC2 16-685); assay: ELISA, hmAb at 10 and 1 ug/ml in duplicate; AUC
T4 construct: domain: S1

[6] = molecular target: T2, SARS-CoV-2 S1+S2 (40589-V08B1, Sino …); assay: ELISA on coated protein, anti-human IgG-HRP; AUC of the OD
[7] = molecular target: T3, SARS-CoV-2 S2 (40590-V08B, Sino …); assay: as above
[8] = molecular target: T4, SARS-CoV-2 S1 (40591-V08H3, Sino …); assay: as above
[9] = molecular target: T1, Spike of MERS-CoV on infected Vero E6 …; assay: immunofluorescence on infected Vero E6 cells, 1 µg/ml
[10] = molecular target: Spike of SARS-CoV (Urbani) on infected Vero E6 cells and live virus (SARS-CoV, UniProt P59594 14-1255); assay: as above

| Binder | Neutralization IC50 (µg/ml), Live Virus WT [1] [µg/mL] | Neutralization IC50 (µg/ml), Live Virus WT [2] [µg/mL] | Binding AUC [3] | Binding AUC [4] | Binding AUC [5] | binding result [5] | Binding AUC [6] | Binding AUC [7] | Binding AUC [8] | binding result [9] | binding result [10] | binding result [8] |
| --- | --- | --- | --- | --- | --- | --- | --- | --- | --- | --- | --- | --- |
| CV3-25 (antibody, V domains shown) VH: QVQLVESGAEVKKPGESLKISCKGSGYTFTRYWIGWVRQMPGKGLEWMGIIYPGDSDTRYSPSFQGHVTISADKSISTAYLQWNSLKASDTAMYYCARLPQYCSNGVCQRWFDPWGQGTLVTVSS VL: EIVLTQSPSSVSASVGDRVTITCRASQGISSWLAWYQQKPGKAPKLLIYAASSLQSGVPSRFSGSGSGTDFTLTISSLQPEDFATYYCQQGNSFPYTFGQGTNLEIK | 12.3 |  |  |  |  |  |  |  |  |  |  |  |
| 1250E10 (antibody, V domains shown, Recombinant human IgG1) VH: EVQLVQSGAEVKKPGASVKFSCKASGFRVDGSYMHWVRQAPRGGLEWMGLINPSGSGTAYAQIFQGRVTLTRDTSTSTLYMELGSLGSEDTAMYYCARMDRSGSYDLWGQGTLVIVSS VL: DIVLTQSPGNLSLSPGERATLSCRASESIRSAYIAWYQQKPGQAPRLLMRGASVRAAGIPDRFSGSGSGTDYALTISRLEPEDFAVYYCQHFASSPPRYTFGQGTKLEIK |  | > 50 | 26 | 27.9 | 2.9 | no binding (tested: 10 ug/ml) | 26 | 27.9 | 2.9 |  |  |  |
| 1242F4 (antibody, V domains shown, Recombinant human IgG1) VH: EVQLVQSGAEVKKPGTSVKVSCKASGNTVADYYMHWVRQAPRQGLEWVGLINPSGSGTAYAQNFQGRVTLTRDTSTSTLYMELGSLGSEDTAIYYCARMDSSGTYDVWGQGTLVTVSS VL: EIVLTQSPGTLSLSPGERATLSCRASQSIRSGYLAWYQQKPGQAPRLLIRGASVKATGIPDRFSGSGSGTDFTLTISRLEPEDFVVYYCQHFASSPPRYTFGQGTKLEIK |  | 36.5 | 27 | 28.5 | 1.3 | no binding (tested: 10 ug/ml) | 27 | 28.5 | 1.3 | binds | binds |  |
| 1242G6 (antibody, V domains shown, Recombinant human IgG1) VH: QVQLVQSGGGVVQPGTSVRLSCAASGFTFSDHGMHWVRQAPGKGLEWVAVISFEGRNKFFADSVKGRSTISRDNSKNTVSMQVDNVRPEDTAVYYCAREHFDGSGSDYIGTRFFDYWGRGALVTVSS VL: DIQLTQSPSFLSASVGDRVTITCRASQGISHYLTWYQQKPGKAPKLLIYRTSTLQSGVPSRFSGSGSGTVFTLTISSLQPEDLATYYCQHLDNFPTITFGQGTRLDLK |  | > 50 | 24.3 | 22.6 | 3.8 |  | 24.3 | 22.6 | 3.8 |  |  | no binding |
| 1246C2 (antibody, V domains shown) VH: QVQLVQSGGGLVKPGGSLRLSCAASGFTFKTHNMIWVRQAPGKVLEWVSSISGSSSYRYYGDSMKGRLTISRDNAKNSLYLEMNSLRAEDTAVYYCARDKGVGPTMVWYFDLWGRGTLVTVSS VL: EIVLTQSPATLSLSPGDRATLSCRASQSLSISLAWYQQKPGQAPRLLIYDASIRATGVPPRFSGSGSGTDFTLTISSLEPEDFAVYYCQQWSGWPPRLTFGGGTKVEIK |  | > 50 | 18 | 17.4 | 4.2 | no binding (tested: 10 ug/ml) | 18 | 17.4 | 4.2 |  |  |  |
| 1250D2 (antibody, V domains shown, Recombinant human IgG1) VH: QVQLVQSGAEVKKPGASMKVSCKASGFTFSDYYMHWVRQAPRQGLEWMGLINPSGSGTAYAQNFQGRVTLTRDTSTSTLYMEMGSLTSDDTAVYYCARMDSSGSYDHWGQGTLVTVSS VL: EIVLTQSPGTLSLSPGDRATLSCRASQTIRISYLAWYQQKPGQAPRLLVYGPSIRATGIPDRFSASGSGTDFTLTISRLEPEDFAVYYCQHYGSSPPRYTFGQGTKLEIK |  | 2.36 | 25.3 | 28.2 | 1.7 | no binding (tested: 10 ug/ml) | 25.3 | 28.2 | 1.7 | binds | binds |  |
| 1242C6 (antibody, V domains shown, Recombinant human IgG1) VH: EVQLVQSGAEVKKPGASVKVSCKASGFTFSDYYMHWVRQAPRQGLEWMGLINPSGSGTAYAQNFQGRVTLTRDTSTSTLYMEMGSLTSDDTAVYYCARMDSSGSYDHWGQGTLVTVSS VL: DIVMTQSPGTLSLSPGDRATLSCRASQTIRISYLAWYQQKPGQAPRLLVYGPSIRATGIPDRFSASGSGTDFTLTISRLEPEDFAVYYCQHYGSSPPRYTFGQGTKLEIK |  | 5.68 | 25.6 | 26.7 | 0.8 | no binding (tested: 10 ug/ml) | 25.6 | 26.7 | 0.8 | binds | binds |  |
